Experimental data from paper PMC9733425 (Journal of structural biology, 2022).

Molecular target: the molecule itself
Assay: SEC-MALS

B1: SAM1 domain of SASH1 (WT human SAM1::6xHis, residues 627-703) (domain or fragment, UniProt O94885 627-703, looked up)
chain: RRKGRPPQPKSVEDLLDRINLKEHMPTFLFNGYEDLDTFKLLEEEDLDELNIRDPEHRAVLLTAVELLQEYDSNSDQ
- stoichiometry N: 4
